Measurements: patent US20170340698A1, “CYCLIC PEPTIDE SPECIFICALLY BINDING TO APOPTOTIC CELLS AND USE THEREOF” (KYUNGPOOK NATIONAL UNIVERSITY INDUSTRY-ACADEMIC COOPERATION …, priority 2014, published 2017)

Tested on: SNU16 human stomach cancer cell line
Experiment: In vitro binding of FITC-conjugated peptides to apoptotic cells, flow cytometry
Assay type: cell-based
Conditions: fluorescent probe
Protocol: SNU16 human stomach cancer cell line was purchased from KCLB (Seoul, Korea). […] After treatment, cells were incubated with fluorescein isothiocyanate (FITC)-conjugated linear or cyclic form of ApoPep-1 peptide at 4[…] for 1 hour. As control, cells were stained with Alexa488-conjugated annexin V (Life technologies, Carlsbad, Calif.) for 15 min at room temperature. Percentages of fluorescent (the liner or cyclic form of ApoPep-1 peptide-bound or annexin V-bound fluorescence) cells were calculated by measurement and analysis methods through the selection of the fluorescent signals (the liner or cyclic form of ApoPep-1 peptide-bound or annexin V-bound fluorescence), which were shown in the respective cells when cells in an emulsion state pass through a constant fluorescence detection zone, using flow cytometry (Fluorescence-activated cell sorting (FACS), FACS calibur, BD Biosciences, MA, USA).
Cyclic form of ApoPep-1 (cyclo[CQRPPRC] peptide of the present invention) was prepared by adding cysteine residue at the carboxy terminal of linear form of ApoPep-1 (CQRPPR) and performing cyclization through disulfide bonding.

B1: annexin V: existing apoptotic probe used as control, Alexa488-conjugated (Life technologies) (protein, UniProt P08758 2-320, looked up)
Annexin A5: AQVLRGTVTDFPGFDERADAETLRKAMKGLGTDEESILTLLTSRSNAQRQEISAAFKTLFGRDLLDDLKSELTGKFEKLIVALMKPSRLYDAYELKHALKGAGTNEKVLTEIIASRTPEELRAIKQVYEEEYGSSLEDDVVGDTSGYYQRMLVVLLQANRDPDAGIDEAQVEQDAQALFQAGELKWGTDEEKFITIFGTRSVSHLRKVFDKYMTISGFQIEETIDRETSGNLEQLLLAVVKSIRSIPAYLAETLYYAMKGAGTDDHTLIRVMVSRSEIDLFNIRKEFRKNFATSLYSMIKGDTSGDYKKALLLLCGEDD
modifications: Alexa488 conjugate
With B1 the “percentage of apoptotic cells detected” value (SNU16 cells treated with cetuximab alone (200 ug/ml) for 24 hours) was roughly 40%, the “percentage of apoptotic cells detected” value (SNU16 cells treated with cisplatin (300 ng/ml) plus cetuximab in combination for 24 hours) was roughly 45% and the “percentage of apoptotic cells detected” value (SNU16 cells treated with cisplatin alone (300 ng/ml) for 24 hours) was “approximately 43%”.
